This is an account of results in paper PMC11964753 (Molecules and Cells, 2025).

The data set concerns the molecule itself. Kind of data set: cryo-EM structure.

Several values for one entry are separate records, joined by “and”; a condition that tells them apart may be missing. Identical values can stand only once.

B1: mouse bestrophin 1 with a C-terminal tandem tag of BRIL and 3X Flag (mBEST1-BRIL-3xFLAG) (natural protein, UniProt O88870 1-551, looked up)
chain: MTITYTNKVANARLGSFSSLLLCWRGSIYKLLYGEFLVFIFLYYSIRGLYRMVLSSDQQLLFEKLALYCDSYIQLIPISFVLGFYVTLVVSRWWSQYENLPWPDRLMIQVSSFVEGKDEEGRLLRRTLIRYAILGQVLILRSISTSVYKRFPTLHHLVLAGFMTHGEHKQLQKLGLPHNTFWVPWVWFANLSMKAYLGGRIRDTVLLQSLMNEVCTLRTQCGQLYAYDWISIPLVYTQVVTVAVYSFFLACLIGRQFLNPNKDYPGHEMDLVVPVFTILQFLFYMGWLKVAEQLINPFGEDDDDFETNWIIDRNLQVSLLSVDGMHQNLPPMERDMYWNEAAPQPPYTAASARSRRHSFMGSTFNISLKKEDLELWSKEEADTDKKESGYSSTIGCFLGLQPKNYHLPLKDLKTKLLCSKNPLLEGQCKDANQKNQKDVWKFKGLDFLKCVPRFKRRGSHCGPQAPSSHPTEQSAPSSSDTGDGPSTDYQEICHMKKKTVEFNLNIPESPTEHLQQRRLDQMSTNIQALMKEHAESYPYRDEAGTKPVLYE
What is called stoichiometry N is a count of units in the complex or per binding partner. For B1, the “stoichiometry N” value is 5 and 10.
